According to the supplement of paper PMC7877785:
± gives the uncertainty stated by the source.

Experiment: self-splicing fitness, log relative to wild type (ln ratio); higher = more splicing; Tetrahymena group I intron in knt gene, E. coli kanamycin selection, DiMSum; sequences stand for … in CUCUCU…GGAGGGAAAAGUUAUCAGGCAUGCACCUGGUAGCUAGUCUUUAAACCAAUAGAUUGCAUCGGUUUAAAAGGCAAGACCGUCAAAUUGCGGGAAAGGGGUCAACAGCCGUUCAGUACCAAGUCUCAGGGGAAACUUUGAGAUGGCCUUGCAAAGGGUAUGGUAAUAAGCUGACGGACAUGGUCCUAACCACGCAGCCAAGUCCUAAGUCAACAGAUCUUCUGUUGAUAUGGAUGCAGUUCACAGACUAAAUGUCGGUCGGGGAAGAUGUAUUCUUCUCAUAAGAUAUAGUCGGACCUCUCCUUAAUGGGAGCUAGCGGAUGAAGUGAUGCAACACUGGAGCCGCUGGGAACUAAUUUGUAUGCGAAAGUAUAUUGAUUAGUUUUGGAGUACUCGUGGUCG
Procedure, shortened: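 A randomised library covering all eight P1ex-region intron nucleotides was built with the intron in the knt kanamycin-resistance gene on pET-22b(+) and held in E. coli BL21(DE3). Cells were grown overnight at 37°C or 30°C on LB agar, with or without 25 μg/mL kanamycin, plus 100 μg/mL carbenicillin, 50 μM IPTG and 0.2% rhamnose, and pooled colonies were amplicon-sequenced on an Illumina HiSeq 2500. DiMSum fitness is the error-weighted combination of wild-type-normalised replicate fold changes, kanamycin versus none.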

Row | Sequence | self-splicing fitness (ln) (30 °C) | self-splicing fitness (ln) (37 °C)
1 | ACGAAGCAAUAUUACGUGGG | -2.76 ± 0.16 | -2.84 ± 0.17
2 | ACGAAGCAAUAUUACGUUAG | -3.22 ± 0.12 | -2.44 ± 0.16
3 | ACGAAGCAAUAUUACGUUUC | -2.31 ± 0.11 | -2.18 ± 0.17
4 | ACGCAGCAAUAUUACGAAAC | -3.07 ± 0.4 | -1.58 ± 0.21
5 | ACGCAGCAAUAUUACGAAAG | -3.33 ± 0.21 | -2 ± 0.19
6 | ACGCAGCAAUAUUACGAACA | -1.75 ± 0.081 | -1.36 ± 0.086
7 | ACGCAGCAAUAUUACGACCA | -1.49 ± 0.12 | -0.691 ± 0.15
8 | ACGCAGCAAUAUUACGAGAA | -1.64 ± 0.26 | -2.83 ± 0.25
9 | ACGCAGCAAUAUUACGAGCC | -2.97 ± 0.2 | -1.84 ± 0.17
10 | ACGCAGCAAUAUUACGAGGG | -3.71 ± 0.18 | -2.77 ± 0.21
11 | ACGCAGCAAUAUUACGAUUG | -2.96 ± 0.18 | -1.82 ± 0.17
12 | ACGCAGCAAUAUUACGCCCG | -0.491 ± 0.13 | -0.64 ± 0.19
13 | ACGCAGCAAUAUUACGCCUC | -2.83 ± 0.17 | -1.22 ± 0.19
14 | ACGCAGCAAUAUUACGCGAA | -2.4 ± 0.15 | -1.2 ± 0.13
15 | ACGCAGCAAUAUUACGCUAC | -1.93 ± 0.25 | -2.59 ± 0.45
16 | ACGCAGCAAUAUUACGGGCU | -2.46 ± 0.11 | -1.36 ± 0.12
17 | ACGCAGCAAUAUUACGGGUG | -1.56 ± 0.068 | -0.519 ± 0.076
18 | ACGCAGCAAUAUUACGGUAA | -2.69 ± 0.12 | -1.02 ± 0.082
19 | ACGCAGCAAUAUUACGUACU | -1.12 ± 0.077 | -0.434 ± 0.088
20 | ACGCAGCAAUAUUACGUAGC | -3.47 ± 0.12 | -1.89 ± 0.14

Row | Sequence | self-splicing fitness (ln) (30 °C) | self-splicing fitness (ln) (37 °C)
21 | ACGCAGCAAUAUUACGUAGU | -2.76 ± 0.087 | -1.92 ± 0.1
22 | ACGCAGCAAUAUUACGUAUU | -3.49 ± 0.32 | -2 ± 0.16
23 | ACGCAGCAAUAUUACGUCUA | -1.55 ± 0.096 | -1.22 ± 0.08
24 | ACGGAGCAAUAUUACGACUA | -2.73 ± 0.35 | -2.09 ± 0.24
25 | ACGGAGCAAUAUUACGACUG | -1.95 ± 0.14 | -0.681 ± 0.13
26 | ACGGAGCAAUAUUACGAGGC | -2.43 ± 0.19 | -2.07 ± 0.31
27 | ACGGAGCAAUAUUACGAUAC | -2.35 ± 0.18 | -1.98 ± 0.22
28 | ACGGAGCAAUAUUACGCGAA | -3.05 ± 0.32 | -1.57 ± 0.23
29 | ACGGAGCAAUAUUACGCUAU | -3.81 ± 0.23 | -2.1 ± 0.19
30 | ACGGAGCAAUAUUACGCUGA | -1.48 ± 0.17 | -1.9 ± 0.21
31 | ACGGAGCAAUAUUACGGAAA | – | -2.15 ± 0.24
32 | ACGGAGCAAUAUUACGGCAA | -2.98 ± 0.3 | -2.61 ± 0.27
33 | ACGGAGCAAUAUUACGGCAC | -3.21 ± 0.28 | -2.43 ± 0.23
34 | ACGGAGCAAUAUUACGGCAG | – | -1.07 ± 0.44
35 | ACGGAGCAAUAUUACGGCGG | -1.4 ± 0.12 | -0.413 ± 0.13
36 | ACGGAGCAAUAUUACGGGGA | -1.07 ± 0.24 | -3.6 ± 0.42
37 | ACGGAGCAAUAUUACGUACG | -2.38 ± 0.45 | –
38 | ACGGAGCAAUAUUACGUCAU | -4.36 ± 0.37 | -3.01 ± 0.37
39 | ACGGAGCAAUAUUACGUGUG | -3.92 ± 0.19 | -2.56 ± 0.14
40 | ACGGAGCAAUAUUACGUUAA | -2.65 ± 0.23 | -3.13 ± 0.47

Row | Sequence | self-splicing fitness (ln) (30 °C) | self-splicing fitness (ln) (37 °C)
41 | ACGUAGCAAUAUUACGAACU | -0.677 ± 0.059 | -0.266 ± 0.082
42 | ACGUAGCAAUAUUACGACCA | -0.97 ± 0.086 | -0.34 ± 0.1
43 | ACGUAGCAAUAUUACGAGGU | -3.36 ± 0.21 | -2.02 ± 0.2
44 | ACGUAGCAAUAUUACGAUCA | -0.757 ± 0.1 | -0.359 ± 0.086
45 | ACGUAGCAAUAUUACGAUCG | -1.15 ± 0.1 | -0.0917 ± 0.12
46 | ACGUAGCAAUAUUACGAUUU | 0.256 ± 0.059 | -0.149 ± 0.073
47 | ACGUAGCAAUAUUACGCAAG | -3.16 ± 0.24 | -3.03 ± 0.22
48 | ACGUAGCAAUAUUACGCAGC | -3.26 ± 0.26 | -2.71 ± 0.25
49 | ACGUAGCAAUAUUACGCAGG | -3.67 ± 0.24 | 0.325 ± 0.1
50 | ACGUAGCAAUAUUACGGCAG | -4.15 ± 0.28 | -2.61 ± 0.33
51 | ACGUAGCAAUAUUACGGCAU | -1.31 ± 0.1 | -0.11 ± 0.099
52 | ACGUAGCAAUAUUACGGCGG | -1.65 ± 0.1 | -0.812 ± 0.11
53 | ACGUAGCAAUAUUACGUACC | -1.4 ± 0.13 | -0.541 ± 0.19
54 | ACGUAGCAAUAUUACGUACG | -2.3 ± 0.19 | -1.35 ± 0.23
55 | ACGUAGCAAUAUUACGUCAA | -3.44 ± 0.27 | -2.34 ± 0.19
56 | ACGUAGCAAUAUUACGUGAC | -2.84 ± 0.14 | -2.94 ± 0.22
57 | ACGUAGCAAUAUUACGUGCC | -1.54 ± 0.22 | -0.492 ± 0.24
58 | ACUAAGCAAUAUUACGAAUA | -2.99 ± 0.23 | -2.55 ± 0.25
59 | ACUAAGCAAUAUUACGAGUG | -1.42 ± 0.08 | -0.758 ± 0.11
60 | ACUAAGCAAUAUUACGAUGG | -0.371 ± 0.1 | -0.661 ± 0.16
